Measurements as given in patent US12385058B2, “Herbicide tolerance protein, encoding gene thereof and use thereof” (Beijing Dabeinong Biotechnology Co., Ltd., priority 2018, dated 2025).

Tested on: soybean plants
Assay: Herbicide tolerance of transgenic soybean T1 plants (spraying, damage degree)
Format: in vivo
Conditions: sprayed with tribenuron-methyl 144 g ai/ha, eight-fold field concentration
Description: The degree of damage caused by the herbicide was measured for each plant according to the leaf curl degree and the growth point damage degree 3 days after spraying (3 DAT), 7 days after spraying (7 DAT), 14 days after spraying (14 DAT) and 21 days after spraying (21 DAT): the case where the leaves are flat as untreated plants and the growth points are intact is defined as having a damage degree of 0%; the case where veins are locally browned, new leaves are malformed and plant growth is slow is defined as having a damage degree of 50%; and the case where veins are purple, until the whole plant is dead and the growth points are browned and dry is defined as having a damage degree of 100%. The soybean plants into which the ALT02M1-01 nucleotide sequence was introduced were of three strains in total (S1, S2 and S3), the soybean plants into which the ALT02M2-01 nucleotide sequence was introduced were of three strains in total (S4, S5 and S6), the soybean plants into which the ALT02M3-01 nucleotide sequence was introduced were of three strains in total (S7, S8 and S9), the soybean plants into which the ALT02-01 nucleotide sequence was introduced were of three strains in total (S10, S11 and S12), the control soybean plants were of two strains in total (S13 and S14), and the wild-type soybean plants were of one strain in total (CK1); and 10-15 plants were selected from each strain and tested.

B1: ALT02-01: nucleotide sequence SEQ ID NO: 21 encoding ALT02, based on soybean codon usage bias (nucleic acid)
DNA: ATGGAGACTGATAACGTGGAACTCGCCCAATCTAAGAGAAAGGTGGTGCTGGCTGAACAAGGGTCATTTTACATAGGGGGTAGGACTGTTACTGGTCCTGGCAAGTTTGATCCATCCAAACCTGTGATACCCTACAGTAACGAAGGAGCAACATTCTATATTAACCAAATGTATGTTAACTTCCAGGCCCCAGTGAGACCTAGGGGACTTCCATTGGTTTTCTGGCATGGAGGTGGCTTGACTGGTCACATCTGGGAGTCTACACCTGACGGCAGACCCGGGTTTCAAACCCTCTTCGTTCAGGATAGGCATACCGTGTACACTATTGACCAACCTGGGAGAGGAAGGGGTAACATCCCAACTTTTAACGGACCTTTCGGACAGTTGGAGGAAGAGAGTATTGTTAACACTGTGACAGGAAATTCTTCAAAGGAAGGTGCCTGGGTGAGAGATAGGCTTGGCCCTGCTCCCGGGCAATTTTTCGAGAACTCTCAGTTTCCTAGAGGCTATGAAGACAATTACTTTAAGGAGATGGGATTCAGCCCATCTATATCCAGTGATGAAATTGTTGACGCTGTTGTGAAACTCGTGACCCATATTGGTCCTTGTGTTCTGGTGACTCACTCAGCATCCGGCGTTCTTGGGATGAGAGTGGCTACACACGCAAAGAATGTTAGGGGAATTGTGGCCTATGAACCAGCTACCTCAATCTTCCCCAAGGGAAAAGTTCCAGAGATACCACCTCTCGCTGATAAGAAAAGCCAAATCTTTCCCCCATTCGAAATACAGGAGTCTTACTTTAAGAAACTTGCCAAGATTCCAATCCAATTTGTTTTCGGAGATAACATCCCCAAGAATCCAAAATCAGCATATTGGTTCCTGGACTGGTGGAGAGTGACAAGATACGCACATAGTCTCAGCCTGGAGGCCATAAACAAATTGGGGGGACAAGCTTCCCTTTTGGATCTTCCTACTGCAGGATTGAGAGGTAATACACACTTTCCCTTCACCGATAGGAACAATGTTCAGGTGGCTTCTCTCCTGTCAGACTTTCTGGGTAAACACGGTCTGGATCAAAATGAGAGCAAACTCGCCGCCGCCCTGGAATGA
modifications: the ALT02-01 nucleotide sequence encoding the amino acid sequence corresponding to the ALT02 and based on the soybean codon usage bias
herbicide tolerance imparted to transgenic soybean plants: impart transgenic soybean plants with the tolerance to benzenesulfonic acid
